Laboratory results taken from patent publication US20050014206A1, “Method of identifying compounds that specifically inhibit the anaphase promoting complex” (Boehringer Ingelhiem International GmbH, priority 2003, published 2005).
“Also recorded” adds a separate entry of the source.

Legend:
APC3 = target: T1, APC3 (Homo sapiens, UniProt P30260); assay: Peptide binding assay (matrix-coupled peptides), APC3
T1 construct: HisHA; made in house; host or cells: Sf9 or Hi5 insect cells (baculovirus), used as lysate
Procedure: (§1) Synthetic peptides used in binding and inhibition assays were […] (CDC20 C-terminus; SEQ ID NO:2), […] (CDH1 C-terminus; SEQ ID NO:1), […] (CDC20 N-terminus; SEQ ID NO:10), and CAVWSLSSCKPGFGVD (control; SEQ ID NO:11).
(§2) Peptide interaction assays were carried out as described in Wendt, K. S., et al., Nat Struct Biol 8:784-8 (2001). Synthetic peptides (see above) were immobilized via N-terminal cysteine residues onto maleinimide-activated POROS matrix ([…]) in 0.1 M HEPES, pH 7.9 for 3 hours. After washing with slightly acidic buffers, 100 μg of the resulting matrix were incubated with insect cell lysates containing recombinant APC subunits, or with fractions from anion chromatography, in total volumes of […] of TBS/T pH 7.5. After stringent washing in TBS/T 0.5 M NaCl, samples were analyzed by SDS-PAGE and immunoblotted with 12CA5 anti-HA antibodies or antibodies against APC subunits.
(§3) To test if APC3 would also interact with the C-termini of CDH1 and its related activator CDC20, insect cell lysates containing recombinantly expressed APC3 were incubated with synthetic peptides coupled to a matrix through their N-terminus. After washing, peptide-bound material was analyzed by western blot. […] In budding yeast, which lacks APC7, they share Cdc27p as their closest homologue.
(§4) In order to exclude any non-specific effects caused by incorrect folding of recombinantly expressed proteins, an alternative source of APC subunits was used in the peptide binding assays. As described above, late-eluting fractions from the ReSource Q column contained considerable amounts of the TPR subunits APC3, APC6, and APC7, while other subunits were found in lower abundance (FIG. 10).

holo-APC = target: T2, holo-APC (Homo sapiens, UniProt P30260+Q9UJX3); assay: Peptide binding assay with holo-APC containing fractions; details: APC-containing anion exchange fractions
T2 construct: endogenous in cells; host or cells: HeLa cells, Source15Q fractions eluting around 450 mM KCl
Procedure: as §1
Pellets from 5×10^9 logarithmically grown HeLa cells (4C, Belgium) were lysed in 20 mM TrisCl pH7.7, 150 mM KCl, 0.5 mM DTT, 0.1% Tween-20, Protease Inhibitor mix (Sigma) using a french press and cleared by 100,000×g centrifugation for 1 h. After filtration through a 0.45 μm filter, extracts were loaded onto a 60 ml Source15Q anion exchange column (Amersham) at 4 ml/min. The column was washed with 20 mM Tris-Cl pH7.7, 150 mM KCl, 0.5 mM DTT until a drop in A280 indicated the end of the flowthrough. Elution was carried out with a gradient from 150 mM to 600 mM KCl. […]
Peptide interaction assays were carried out as described in Wendt, K. S., et al., Nat Struct Biol 8:784-8 (2001). […] After stringent washing in TBS/T 0.5 M NaCl, samples were analyzed by SDS-PAGE and immunoblotted with 12CA5 anti-HA antibodies or antibodies against APC subunits.
It was tested if CDH1's C-terminus would be sufficient to interact with holo-APC. For this, APC-containing fractions were incubated with the peptide matrix and analyzed for binding of APC by detection of all subunits. […]

APC6 = target: T3, APC6 (Homo sapiens, UniProt Q13042); assay: Peptide binding assay (matrix-coupled peptides), APC6; details: for binding of recombinant APC6 to matrix-coupled peptide: insect cell lysates, western blot
T3 construct: HisHA; made in house; host or cells: Sf9 or Hi5 insect cells (baculovirus), used as lysate
Procedure: as §1, §2, §3, §4

APC activation by CDH1 = target: T4, APC activation by CDH1 (Homo sapiens, UniProt P30260+Q9UJX3); assay: In vitro ubiquitination assay with [125I]-labelled cyclin B as substrate; format: biochemical; details: APC loaded with recombinant CDH1 in presence of peptide at 1 mg/ml, cyclin B fragment substrate
T4 construct: endogenous in cells; host or cells: APC immunopurified from HeLa cell extracts; CDH1 and cyclin B fragment recombinant
Procedure: (§5) Immunopurified holo-APC or subcomplexes were washed and incubated with purified recombinant CDH1 (0.5-1.0 μg per 10 μl bead volume) in TBS/T, or with insect cell lysates in TBS/T containing recombinant CDH1 proteins as indicated. Peptides for competition were used at 1 mg/ml, with the addition of 0.5 mM DTT to the buffer. Subsequently, bead-bound complexes were washed 3× with TBS/T and immunoblotted for binding of CDH1 or used in ubiquitination assays. In vitro ubiquitination reactions were performed as described (Kramer, E. R., et al., Curr Biol 8:1207-10 (1998)). Securin-myc-his substrate was detected by immunoblotting with monoclonal anti-Myc 9E10 antibodies. Alternatively, an iodinated N-terminal recombinant fragment of sea urchin cyclin B (amino acids 13-110) was used and visualized by autoradiography (Gieffers, C., et al., Mol Cell 7:907-13 (2001)).
(§6) What are the mechanistic consequences of the observed interactions between IR tail peptides and APC subunits? To address this, it was tested if the peptides would influence APC activity in in vitro ubiquitination assays. Immunopurified APC was loaded with recombinant CDH1 in the presence or absence of IR-tail or control peptides, washed, and used to ubiquitinate a radioactively labeled fragment of cyclin B (FIG. 6B). […] In contrast, an N-terminal CDC20 peptide had no effect on APC activation.

[1] = target: T5, binding of recombinant CDH1 to APC (Homo sapiens, UniProt P30260+Q9UJX3); assay: CDH1 binding assay with competing peptides; details: peptides at 1 mg/ml; for effect of peptide on CDH1 binding to APC: quantitative immunoblotting with radiolabeled antibodies
T5 construct: endogenous in cells; host or cells: APC immunopurified from HeLa cell extracts; CDH1 recombinant, made in house
Procedure: as §5, §6

APC5 = target: T6, APC5 (Homo sapiens, UniProt Q9UJX4); assay: Peptide binding assay (matrix-coupled peptides), APC5; details: insect cell lysates; western blot
T6 construct: HisHA; made in house; host or cells: Sf9 or Hi5 insect cells (baculovirus), used as lysate
Procedure: as §1, §2, §3

CDC26 = target: T7, CDC26 (Homo sapiens, UniProt Q8NHZ8); assay: Peptide binding assay (matrix-coupled peptides), CDC26; details: late-eluting Q column fractions from HeLa extracts; listed as CDH1 peptide
T7 construct: endogenous in cells; host or cells: HeLa cells, late-eluting Source15Q fractions
Procedure: as §1, §2, §4

APC7 = target: T8, APC7 (Homo sapiens, UniProt Q9UJX3); assay: Peptide binding assay (matrix-coupled peptides), APC7 and APC7 fragments; details: for binding of recombinant APC7 to matrix-coupled peptide: recombinant APC7 in insect cell lysates, western blot
T8 construct: HisHA; made in house; host or cells: Sf9 or Hi5 insect cells (baculovirus), used as lysate
Procedure: as §1, §2, §3, §4
Lastly, the region in APC7 responsible for binding to IR peptides was mapped.

APC8 = target: T9, APC8 (Homo sapiens, UniProt Q9UJX2); assay: Peptide binding assay (matrix-coupled peptides), APC8; details: insect cell lysates; western blot
T9 construct: HisHA; made in house; host or cells: Sf9 or Hi5 insect cells (baculovirus), used as lysate
Procedure: as §1, §2, §3

[2] = target: native CDC26 from late-eluting anion exchange fractions of HeLa extract (human, UniProt Q8NHZ8 1-85); assay: matrix-coupled peptide pull-down from late-eluting Q column fractions, western blot
Procedure: as §2, §4

[3] = target: T10, recombinant HisHA-tagged APC8 (UniProt Q9UJX2 1-597); assay: matrix-coupled peptide pull-down from insect cell lysate, western blot
T10 construct: Expressed with baculovirus in insect cells; used as lysate; also called APC8/CDC23; not shown: HisHA tag
Procedure: as §2
(§7) To test if APC3 would also interact with the C-termini of CDH1 and its related activator CDC20, insect cell lysates containing recombinantly expressed APC3 were incubated with synthetic peptides coupled to a matrix through their N-terminus. After washing, peptide-bound material was analyzed by western blot. […] APC7, on the other hand, interacted strongly with the CDH1 C-terminus and moderately with CDC20's C-terminus (FIG. 5A), in a manner very similar to APC3. […] In budding yeast, which lacks APC7, they share Cdc27p as their closest homologue.

[4] = target: T11, recombinant HisHA-tagged APC5 (UniProt Q9UJX4 1-755); assay: as above
T11 construct: Expressed with baculovirus in insect cells; used as lysate; not shown: HisHA tag
Procedure: as §2, §7

[5] = recombinant APC3 in insect cell lysates, western blot
[6] = listed as C-terminal CDH1 peptide
[7] = listed as C-terminal peptide of CDH1
[8] = late-eluting Q column fractions from HeLa extracts
[9] = listed as C-terminal CDC20 peptide

T1 sequence (P30260 whole entry): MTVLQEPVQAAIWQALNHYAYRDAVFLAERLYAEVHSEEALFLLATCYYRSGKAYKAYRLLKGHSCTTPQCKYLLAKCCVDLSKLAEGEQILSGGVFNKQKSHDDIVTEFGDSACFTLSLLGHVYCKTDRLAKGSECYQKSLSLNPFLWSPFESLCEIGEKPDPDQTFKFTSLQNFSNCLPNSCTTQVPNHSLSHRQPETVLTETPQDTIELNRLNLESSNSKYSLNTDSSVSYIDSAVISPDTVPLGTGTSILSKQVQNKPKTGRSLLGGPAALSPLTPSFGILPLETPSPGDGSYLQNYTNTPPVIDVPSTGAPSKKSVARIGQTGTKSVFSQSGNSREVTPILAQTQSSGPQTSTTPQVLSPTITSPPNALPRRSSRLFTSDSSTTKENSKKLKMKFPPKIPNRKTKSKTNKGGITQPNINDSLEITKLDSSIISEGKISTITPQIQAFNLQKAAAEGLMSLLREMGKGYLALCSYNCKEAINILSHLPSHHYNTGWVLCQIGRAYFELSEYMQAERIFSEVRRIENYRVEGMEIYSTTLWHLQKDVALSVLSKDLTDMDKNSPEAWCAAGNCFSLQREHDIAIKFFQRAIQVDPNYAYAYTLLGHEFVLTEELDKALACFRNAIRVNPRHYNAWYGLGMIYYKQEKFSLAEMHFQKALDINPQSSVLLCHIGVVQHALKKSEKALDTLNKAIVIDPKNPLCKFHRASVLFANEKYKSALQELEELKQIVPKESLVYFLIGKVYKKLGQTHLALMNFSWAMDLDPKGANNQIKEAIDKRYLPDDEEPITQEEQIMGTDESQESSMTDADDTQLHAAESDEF
T8 sequence (Q9UJX3 whole entry, the tested form may be a part): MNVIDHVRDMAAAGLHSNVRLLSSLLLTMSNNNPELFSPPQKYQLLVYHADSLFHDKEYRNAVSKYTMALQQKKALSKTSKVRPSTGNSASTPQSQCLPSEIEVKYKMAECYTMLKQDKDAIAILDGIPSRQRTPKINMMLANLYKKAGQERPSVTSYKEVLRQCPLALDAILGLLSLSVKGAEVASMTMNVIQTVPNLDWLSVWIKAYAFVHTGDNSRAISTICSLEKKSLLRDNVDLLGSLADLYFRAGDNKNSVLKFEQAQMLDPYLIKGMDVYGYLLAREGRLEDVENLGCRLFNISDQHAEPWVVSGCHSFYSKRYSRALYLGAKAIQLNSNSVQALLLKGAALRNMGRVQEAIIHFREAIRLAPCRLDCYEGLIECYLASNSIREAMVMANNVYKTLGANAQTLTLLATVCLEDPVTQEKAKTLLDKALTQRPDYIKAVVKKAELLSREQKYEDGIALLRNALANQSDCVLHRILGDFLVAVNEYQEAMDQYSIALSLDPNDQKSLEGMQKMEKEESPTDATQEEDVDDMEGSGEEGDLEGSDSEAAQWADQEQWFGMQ
T3 sequence (Q13042 whole entry): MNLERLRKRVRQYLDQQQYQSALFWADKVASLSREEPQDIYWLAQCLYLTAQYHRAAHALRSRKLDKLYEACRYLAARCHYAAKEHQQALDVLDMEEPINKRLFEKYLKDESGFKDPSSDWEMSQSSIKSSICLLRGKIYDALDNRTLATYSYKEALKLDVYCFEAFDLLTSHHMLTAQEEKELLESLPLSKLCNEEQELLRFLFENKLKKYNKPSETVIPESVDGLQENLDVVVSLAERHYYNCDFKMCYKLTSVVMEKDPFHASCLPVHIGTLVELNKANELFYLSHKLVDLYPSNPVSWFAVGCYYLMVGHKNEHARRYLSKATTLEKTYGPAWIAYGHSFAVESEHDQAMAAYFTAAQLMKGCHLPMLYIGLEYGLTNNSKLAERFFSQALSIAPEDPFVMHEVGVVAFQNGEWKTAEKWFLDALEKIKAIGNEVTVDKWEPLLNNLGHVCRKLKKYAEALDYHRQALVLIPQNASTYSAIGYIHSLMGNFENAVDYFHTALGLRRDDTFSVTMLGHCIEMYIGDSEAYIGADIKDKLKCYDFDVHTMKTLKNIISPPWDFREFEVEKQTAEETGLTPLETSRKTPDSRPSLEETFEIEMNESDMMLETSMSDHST
T11 sequence (Q9UJX4 whole entry): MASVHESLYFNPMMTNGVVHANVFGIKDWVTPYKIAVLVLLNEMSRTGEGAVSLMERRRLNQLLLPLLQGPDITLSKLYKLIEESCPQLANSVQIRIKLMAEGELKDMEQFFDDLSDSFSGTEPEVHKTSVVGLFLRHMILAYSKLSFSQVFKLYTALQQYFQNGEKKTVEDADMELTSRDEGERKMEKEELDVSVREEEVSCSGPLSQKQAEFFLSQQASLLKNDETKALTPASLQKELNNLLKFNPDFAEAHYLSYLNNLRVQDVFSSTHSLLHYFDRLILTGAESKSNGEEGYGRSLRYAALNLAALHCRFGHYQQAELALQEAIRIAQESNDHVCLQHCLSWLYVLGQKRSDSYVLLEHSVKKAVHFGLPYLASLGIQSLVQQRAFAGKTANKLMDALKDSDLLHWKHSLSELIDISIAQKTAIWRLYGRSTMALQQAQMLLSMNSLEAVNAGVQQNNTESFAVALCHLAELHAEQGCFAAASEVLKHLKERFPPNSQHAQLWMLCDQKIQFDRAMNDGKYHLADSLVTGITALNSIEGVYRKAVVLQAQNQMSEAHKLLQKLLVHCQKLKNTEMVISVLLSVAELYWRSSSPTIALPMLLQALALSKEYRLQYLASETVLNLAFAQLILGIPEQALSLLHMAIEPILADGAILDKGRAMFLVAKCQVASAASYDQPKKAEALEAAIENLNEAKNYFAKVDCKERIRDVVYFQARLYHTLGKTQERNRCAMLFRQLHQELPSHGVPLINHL
T6 sequence (Q9UJX4 whole entry): as above
T7 sequence (Q8NHZ8 whole entry): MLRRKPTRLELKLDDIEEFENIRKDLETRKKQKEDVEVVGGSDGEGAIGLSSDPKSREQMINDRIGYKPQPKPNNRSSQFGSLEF
T10 sequence (Q9UJX2 whole entry): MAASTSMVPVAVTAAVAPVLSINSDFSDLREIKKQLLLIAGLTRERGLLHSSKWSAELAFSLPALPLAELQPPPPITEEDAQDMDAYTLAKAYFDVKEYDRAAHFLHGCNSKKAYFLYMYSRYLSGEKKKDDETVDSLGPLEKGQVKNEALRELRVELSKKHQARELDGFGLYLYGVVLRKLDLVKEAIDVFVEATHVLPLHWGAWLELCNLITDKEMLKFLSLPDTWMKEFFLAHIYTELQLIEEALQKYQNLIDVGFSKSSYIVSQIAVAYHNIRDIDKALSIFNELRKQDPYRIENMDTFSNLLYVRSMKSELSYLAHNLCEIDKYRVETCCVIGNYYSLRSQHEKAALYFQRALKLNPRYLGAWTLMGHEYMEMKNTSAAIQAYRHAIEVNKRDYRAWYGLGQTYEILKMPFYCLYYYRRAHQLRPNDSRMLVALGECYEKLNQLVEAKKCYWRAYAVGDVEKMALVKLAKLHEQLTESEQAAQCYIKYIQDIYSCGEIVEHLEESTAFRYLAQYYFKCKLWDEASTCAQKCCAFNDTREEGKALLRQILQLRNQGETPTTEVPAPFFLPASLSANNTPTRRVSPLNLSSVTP
T9 sequence (Q9UJX2 whole entry): as above
Chain of native CDC26 from late-eluting anion exchange fractions of HeLa extract (Q8NHZ8 whole entry): as the sequence (Q8NHZ8 whole entry) above

Molecule | binding of recombinant APC3 to matrix-coupled peptide (APC3; [5]) | binding of holo-APC (all known subunits) to peptide matrix (holo-APC) | binding of recombinant APC6 to matrix-coupled peptide (APC6) | effect of peptide on APC activation (ubiquitination activity) (APC activation by CDH1) | binding of recombinant APC5 to matrix-coupled peptide (APC5) | binding of recombinant APC7 to matrix-coupled peptide (APC7) | binding of recombinant APC8 to matrix-coupled peptide (APC8) | binding result [3] | binding result [4] | also measured
CAVWSLSSCKPGFGVD (Control peptide) [reference compound] | did not bind | not | low amounts | – | – | – | – | – | – | –
CESDLHSLLQLDAPIPNAPPARW (listed as Homo sapiens) [N-terminal CDC20 peptide, synthetic peptide of the CDC20 N-terminus used as control, reference compound] | – | – | – | no effect | – | – | – | – | – | –
CFSKTRSTKESVSVLNLFTRIR (listed as Homo sapiens) [CDH1 C-terminal peptide, IR peptide; authentic human CDH1 C-terminus] | even stronger binding | strongly enriched | bound only in low amounts | – | interacted with neither | interacted strongly | did not bind | – | – | inhibitory effect compared with the CDC20 C-terminal peptide ([1]; comparison of the two C-terminal peptides): stronger effect; effect of peptide on CDH1 binding to APC [1, 6]: inhibit; effect of peptide on CDH1 binding to APC [1, 7]: diminished binding of CDH1; effect of peptide on APC activation (ubiquitination activity) (APC activation by CDH1; [6]): inhibit; effect of peptide on APC activation (ubiquitination activity) (APC activation by CDH1; [7]): blocked APC activation efficiently; binding of CDC26 to peptide matrix (CDC26): no binding at all; also recorded: did not bind; binding of native APC7 to peptide matrix (APC7; [8]): significantly retained; binding of native APC3 to peptide matrix (APC3; [8]): significantly retained; binding of native APC6 to peptide matrix (APC6; late-eluting Q column fractions from HeLa extracts, listed as CDH1 peptide): did not bind
CLRREREKASTSKSSLIHQGIR (listed as Homo sapiens) [C-terminal peptide of CDC20, IR peptide; authentic human CDC20 C-terminus] | – | – | bound only in low amounts | blocked APC activation efficiently | interacted with neither | moderately | did not bind | – | – | effect of peptide on CDH1 binding to APC [1]: diminished binding of CDH1; effect of peptide on CDH1 binding to APC [1, 9]: inhibit; effect of peptide on APC activation (ubiquitination activity) (APC activation by CDH1; [9]): inhibit; input APC3 bound to matrix-coupled peptide (APC3; recombinant APC3 in insect cell lysates, western blot, % of input): about 10%
CFSKTRSTKESVSVLNLFTRIR (in the peptide binding assays immobilized via the N-terminal cysteine onto maleinimide-activated POROS matrix; free peptide in the competition assays, Synthetic peptide; also called CDH1 C-terminus; CDH1 peptide) [CDH1 C-terminal peptide CFSKTRSTKESVSVLNLFTRIR] | – | – | – | – | – | – | – | no binding | no binding | binding result [2]: no binding
CLRREREKASTSKSSLIHQGIR (in the peptide binding assays immobilized via the N-terminal cysteine onto maleinimide-activated POROS matrix; free peptide in the competition assays, Synthetic peptide; also called CDC20 C-terminus; CDC20 peptide) [CDC20 C-terminal peptide CLRREREKASTSKSSLIHQGIR] | – | – | – | – | – | – | – | no binding | no binding | –
